The target in the assay is Sso1pHT (yeast t-SNARE Sso1p without the Habc domain), labelled with Cy5 (yeast). The experiment in a line: FRET or BRET. (In BRET a luciferase serves as donor, and the signal depends on an acceptor being close.)

1 substance from article PMC3773174 can be followed below.

Turning to “Snc2p (yeast v-SNARE), labelled with Cy3 (from UniProt P33328 1-115) (natural protein)”, the FRET efficiency of the single protein-protein complex (H) amounted to 0.96.
